Reference: the supplement of paper PMC7877785
± gives the uncertainty stated by the source.

Assay: self-splicing fitness, log relative to wild type (ln ratio); higher = more splicing; Tetrahymena group I intron in knt gene, E. coli kanamycin selection, DiMSum; sequences stand for … in CUCUCU…GGAGGGAAAAGUUAUCAGGCAUGCACCUGGUAGCUAGUCUUUAAACCAAUAGAUUGCAUCGGUUUAAAAGGCAAGACCGUCAAAUUGCGGGAAAGGGGUCAACAGCCGUUCAGUACCAAGUCUCAGGGGAAACUUUGAGAUGGCCUUGCAAAGGGUAUGGUAAUAAGCUGACGGACAUGGUCCUAACCACGCAGCCAAGUCCUAAGUCAACAGAUCUUCUGUUGAUAUGGAUGCAGUUCACAGACUAAAUGUCGGUCGGGGAAGAUGUAUUCUUCUCAUAAGAUAUAGUCGGACCUCUCCUUAAUGGGAGCUAGCGGAUGAAGUGAUGCAACACUGGAGCCGCUGGGAACUAAUUUGUAUGCGAAAGUAUAUUGAUUAGUUUUGGAGUACUCGUGGUCG
Procedure, shortened: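 DiMSum derived fitness as the error-weighted combination of fold changes across replicates, kanamycin versus no kanamycin, normalised to wild type. E. coli BL21(DE3) held the library, which randomised all eight P1ex-region intron nucleotides within the knt kanamycin-resistance gene on pET-22b(+). Six replicate transformations grew overnight at 37°C or 30°C on LB agar with or without 25 μg/mL kanamycin, also containing 100 μg/mL carbenicillin, 50 μM IPTG and 0.2% rhamnose, and pooled colonies were amplicon-sequenced on an Illumina HiSeq 2500.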

Row | Sequence | self-splicing fitness (ln) (30 °C) | self-splicing fitness (ln) (37 °C)
1 | UUAGAGCAAUAUUACGAUCC | -2.97 ± 0.41 | –
2 | GGAUAGCAAUAUUACGCGGA | -2.65 ± 0.43 | -1.57 ± 0.31
3 | GGCCAGCAAUAUUACGUGUU | -0.771 ± 0.055 | -0.0103 ± 0.07
4 | CGGUAGCAAUAUUACGCAUU | – | -2.5 ± 0.24
5 | CGGCAGCAAUAUUACGUGUC | -3.89 ± 0.31 | -2.6 ± 0.2
6 | GAGCAGCAAUAUUACGCCUU | -3.8 ± 0.32 | -1.32 ± 0.19
7 | CUGCAGCAAUAUUACGGUGC | -3.97 ± 0.24 | -1.96 ± 0.23
8 | CAUCAGCAAUAUUACGUCGU | -1.93 ± 0.097 | -1.19 ± 0.11
9 | GCAAAGCAAUAUUACGCGUC | -2.92 ± 0.28 | -1.94 ± 0.32
10 | ACUAAGCAAUAUUACGUGGG | -2.98 ± 0.14 | -2.81 ± 0.14
11 | GUAGAGCAAUAUUACGGGAU | -2.01 ± 0.098 | -1.19 ± 0.12
12 | AAUCAGCAAUAUUACGGCGU | 0.47 ± 0.068 | 0.7 ± 0.076
13 | GCUUAGCAAUAUUACGCUUU | -1.23 ± 0.064 | -0.413 ± 0.084
14 | GAGAAGCAAUAUUACGGACC | -0.43 ± 0.18 | 0.267 ± 0.19
15 | CCGCAGCAAUAUUACGUUCC | -3.27 ± 0.41 | -1.54 ± 0.43
16 | GACUAGCAAUAUUACGGGGC | -4.11 ± 0.23 | -1.21 ± 0.13
17 | CCGUAGCAAUAUUACGGAAG | -1.47 ± 0.17 | -2.34 ± 0.41
18 | CGCGAGCAAUAUUACGAUUA | -3.1 ± 0.3 | -1.99 ± 0.35
19 | CCUUAGCAAUAUUACGUUAU | -2.42 ± 0.14 | -2.45 ± 0.28
20 | CUGAAGCAAUAUUACGAGGG | -2.03 ± 0.11 | -1.25 ± 0.14
21 | CAGAAGCAAUAUUACGUGCC | -4.04 ± 0.28 | -2.74 ± 0.3
22 | UUGUAGCAAUAUUACGGGGA | -1.98 ± 0.26 | -0.346 ± 0.17
23 | GCUGAGCAAUAUUACGCCCG | -2.34 ± 0.27 | -0.207 ± 0.42
24 | UUUUAGCAAUAUUACGAAUU | -3.26 ± 0.38 | -1.23 ± 0.29
25 | ACGCAGCAAUAUUACGGACG | -1.31 ± 0.05 | -0.318 ± 0.07
26 | CCACAGCAAUAUUACGGUGG | -4.51 ± 0.17 | -2.28 ± 0.11

Row | Sequence | self-splicing fitness (ln) (30 °C) | self-splicing fitness (ln) (37 °C)
27 | ACGGAGCAAUAUUACGCGAC | -2.45 ± 0.21 | -2.55 ± 0.41
28 | CCACAGCAAUAUUACGGCGC | -3.56 ± 0.16 | -2.17 ± 0.13
29 | UCUAAGCAAUAUUACGACUG | -0.955 ± 0.17 | -0.205 ± 0.23
30 | AAAAAGCAAUAUUACGCAUG | -0.952 ± 0.066 | 0.04 ± 0.074
31 | CCUUAGCAAUAUUACGAGAU | -2.62 ± 0.26 | -2.79 ± 0.21
32 | UCUUAGCAAUAUUACGGGAC | -3.78 ± 0.24 | -1.8 ± 0.32
33 | AGUAAGCAAUAUUACGAGCG | -0.847 ± 0.072 | -0.0455 ± 0.11
34 | AACGAGCAAUAUUACGGGUG | -3.4 ± 0.17 | -2.34 ± 0.2
35 | GACAAGCAAUAUUACGCUAC | -3.62 ± 0.31 | -2.54 ± 0.23
36 | CACGAGCAAUAUUACGCUUG | -3.27 ± 0.34 | -2.03 ± 0.47
37 | GUUCAGCAAUAUUACGCUAC | -3.75 ± 0.29 | -2.67 ± 0.26
38 | GACCAGCAAUAUUACGUCUC | -0.562 ± 0.044 | -0.159 ± 0.064
39 | GAUUAGCAAUAUUACGACGA | -1.23 ± 0.3 | -0.273 ± 0.2
40 | CGAUAGCAAUAUUACGAAAG | -0.907 ± 0.089 | -0.699 ± 0.12
41 | UCCCAGCAAUAUUACGUCAA | -2.71 ± 0.18 | -1.13 ± 0.16
42 | CAUAAGCAAUAUUACGUCUA | -2.41 ± 0.14 | -1.4 ± 0.11
43 | GGUCAGCAAUAUUACGACAG | -0.391 ± 0.11 | 0.151 ± 0.13
44 | UAUUAGCAAUAUUACGCAAU | -2.79 ± 0.28 | -1.77 ± 0.27
45 | GCCUAGCAAUAUUACGAUUA | -3.39 ± 0.29 | -1.63 ± 0.18
46 | ACCCAGCAAUAUUACGCUAC | -4.01 ± 0.27 | -2.38 ± 0.19
47 | UUCGAGCAAUAUUACGUGCU | -2.02 ± 0.18 | –
48 | UGAAAGCAAUAUUACGCGGA | -1.66 ± 0.13 | -1.52 ± 0.13
49 | GACGAGCAAUAUUACGUGCU | -2.92 ± 0.19 | -2.4 ± 0.23
50 | CUCAAGCAAUAUUACGCACA | -2.17 ± 0.34 | -2.48 ± 0.28
51 | GAAUAGCAAUAUUACGAGCU | -1.21 ± 0.081 | -0.335 ± 0.1
52 | AAUAAGCAAUAUUACGAAUG | -1.37 ± 0.13 | -0.759 ± 0.17

Row | Sequence | self-splicing fitness (ln) (30 °C) | self-splicing fitness (ln) (37 °C)
53 | GUGUAGCAAUAUUACGCUAU | – | -1.15 ± 0.24
54 | UCUAAGCAAUAUUACGAUAG | -1.15 ± 0.07 | -0.499 ± 0.1
55 | GGGAAGCAAUAUUACGGGCG | -1.14 ± 0.13 | -0.362 ± 0.15
56 | CUUGAGCAAUAUUACGGCCG | – | -0.18 ± 0.27
57 | UGCAAGCAAUAUUACGCUCC | -0.565 ± 0.2 | -1.37 ± 0.34
58 | GCUAAGCAAUAUUACGCAAU | -1.55 ± 0.17 | -1.75 ± 0.15
59 | GCUCAGCAAUAUUACGGCAU | -2.29 ± 0.2 | -1.72 ± 0.15
60 | AUAGAGCAAUAUUACGAUGA | -2.14 ± 0.21 | -1.75 ± 0.29
61 | UUGAAGCAAUAUUACGCGUA | -0.169 ± 0.069 | -0.247 ± 0.098
62 | AGGUAGCAAUAUUACGGUGG | -3.787 ± 0.027 | -2.8 ± 0.04
63 | AUUGAGCAAUAUUACGUGAU | -1.58 ± 0.14 | -2.17 ± 0.22
64 | CAGUAGCAAUAUUACGUCCA | -2.28 ± 0.21 | -1.83 ± 0.28
65 | UAUCAGCAAUAUUACGUAGA | -0.562 ± 0.058 | -0.0988 ± 0.081
66 | UGCAAGCAAUAUUACGAAAU | -3.34 ± 0.2 | -2.04 ± 0.22
67 | CUUGAGCAAUAUUACGAUUU | – | -2.09 ± 0.39
68 | UUACAGCAAUAUUACGAACA | -0.742 ± 0.11 | -1.07 ± 0.12
69 | GAAGAGCAAUAUUACGCGGU | -2.63 ± 0.14 | -2.55 ± 0.25
70 | GAGAAGCAAUAUUACGAGUG | -2.91 ± 0.14 | -1.01 ± 0.11
71 | GAAUAGCAAUAUUACGUGUA | -1.82 ± 0.12 | -1.49 ± 0.13
72 | GGUGAGCAAUAUUACGUGAC | -3.14 ± 0.22 | -0.938 ± 0.22
73 | GACAAGCAAUAUUACGUGGU | -3.63 ± 0.11 | -2.76 ± 0.12
74 | AGGAAGCAAUAUUACGGUAU | -2.52 ± 0.28 | -0.707 ± 0.24
75 | UAUUAGCAAUAUUACGGUCA | -0.76 ± 0.1 | -0.0892 ± 0.095
76 | CCCAAGCAAUAUUACGUCCG | -3.6 ± 0.43 | -2.45 ± 0.3
77 | AAUCAGCAAUAUUACGCCAU | -2.35 ± 0.19 | -1.76 ± 0.14
